# Source: paper PMC7078472
# B1: unnamed (parent)
# chain 1: VHQRIASWQNLGAVYCSTVVPSDDVTVVYQNGLPVISVRLPSRRERCQFTLKPISDSVGVFLRQLQEEDRGIDRVAIYSPDGVRVAASTGIDLLLLDDFKLVINDLTYHVRPPKRDLLSHENAATLNDVKTLVQQLYTTLCIEQHQLNKERELIERLEDLKEQLAPLEKVRIEISRKAEKRTTLVLWGGLAYMATQFGILARLTWWEYSWDIMEPVTYFITYGSAMAMYAYFVMTRQEYVYPEARDRQYLLFFHKGAKKSRFDLEKYNQLKDAIAQAEMDLKRLRDPLQVHLPLRQIGEKD
# chain 2: DIDTAAKFIGAGAATVGVAGSGAGIGTVFGSLIIGYARNPSLKQQLFSYAILGFALSEAMGLFCLMVAFLILFAM
# Variants of: B1
# Assay: MYTH (membrane yeast two-hybrid) quantitative β-Gal activity assay
# Details: with partner chain of the complex shown; yeast strain NMY51; n = 3; 6 colonies for each independent experiment; read off a plot
row,Variant,response
1,chain 1 Q196A I199P L200P W205A,26 units
